Assay results published in patent US20210347908A1 (ELPISCIENCE SUZHOU BIOPHARMA, published 2021).
Substitutions are numbered along the chain they refer to. Read-outs that look alike come from different tables or passages of the source. Each block holds one binder with its values, some of them ahead of it.

Legend:
[1] = target: T1, full length human SIRPα v1 stably expressed on CHOK1 cells (human, UniProt P78324 31-504); assay: FACS on CHOK1 cells
T1 construct: whole, on cells; also called CHOK1-human SIRPα v1-1B4 cells; CHOK1-human SIRPα v1
Experimental: (§1) Species cross reactivity of the purified hybridoma antibodies against human, cyno and mouse SIRPα was determined by FACS assay using CHOK1-human SIRPα v1-1B4 cells, CHOK1-cyno SIRPα-2A2 cells, and CHOK1-C57BL/6 mouse SIRPα-2.22 cells, which stably expressing SIRPα protein. Briefly the antibodies were incubated with 2×10⁵ target cells at 4° C. for 1 hour. After washing, fluorescence labeled anti-mouse or anti-human IgG 2nd antibody (Life Technologies) was added and incubated at 4° C. for 1 hour. Geometric median fluorescence intensity was detected and EC₅₀ was calculated. In particular, it is noted, in contrast to the other antibodies tested in the same experiment, 060 cannot bind with cyno SIRPα and 035 has cross reactivity against C57BL/6 mouse SIRPα.

[2] = target: T2, full length cyno SIRPα stably expressed on CHOK1 cells (cynomolgus monkey, UniProt A0A2K5VYQ9 31-507); assay: FACS on CHOK1 cells
T2 construct: whole, on cells; also called CHOK1-cyno SIRPα-2A2 cells; CHOK1-cyno SIRPα
T2 sequence: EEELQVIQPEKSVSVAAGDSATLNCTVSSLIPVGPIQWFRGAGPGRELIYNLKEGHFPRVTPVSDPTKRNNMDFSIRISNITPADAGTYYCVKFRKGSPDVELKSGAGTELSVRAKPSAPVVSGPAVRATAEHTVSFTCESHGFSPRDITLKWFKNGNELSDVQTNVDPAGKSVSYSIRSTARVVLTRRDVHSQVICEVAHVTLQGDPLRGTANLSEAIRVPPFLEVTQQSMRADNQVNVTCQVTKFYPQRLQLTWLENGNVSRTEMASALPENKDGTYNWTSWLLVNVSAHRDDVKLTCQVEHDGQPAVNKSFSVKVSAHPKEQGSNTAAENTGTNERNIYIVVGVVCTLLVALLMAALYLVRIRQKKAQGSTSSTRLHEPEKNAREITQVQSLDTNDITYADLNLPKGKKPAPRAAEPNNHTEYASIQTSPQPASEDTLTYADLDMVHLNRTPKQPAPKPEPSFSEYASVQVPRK
Experimental: as §1

[3] = target: T3, full length C57BL/6 mouse SIRPα stably expressed on CHOK1 cells (mouse (C57BL/6), UniProt P97797 32-513); assay: FACS on CHOK1 cells
T3 construct: whole, on cells; also called CHOK1-C57BL/6 mouse SIRPα-2.22 cells
T3 sequence (looked up): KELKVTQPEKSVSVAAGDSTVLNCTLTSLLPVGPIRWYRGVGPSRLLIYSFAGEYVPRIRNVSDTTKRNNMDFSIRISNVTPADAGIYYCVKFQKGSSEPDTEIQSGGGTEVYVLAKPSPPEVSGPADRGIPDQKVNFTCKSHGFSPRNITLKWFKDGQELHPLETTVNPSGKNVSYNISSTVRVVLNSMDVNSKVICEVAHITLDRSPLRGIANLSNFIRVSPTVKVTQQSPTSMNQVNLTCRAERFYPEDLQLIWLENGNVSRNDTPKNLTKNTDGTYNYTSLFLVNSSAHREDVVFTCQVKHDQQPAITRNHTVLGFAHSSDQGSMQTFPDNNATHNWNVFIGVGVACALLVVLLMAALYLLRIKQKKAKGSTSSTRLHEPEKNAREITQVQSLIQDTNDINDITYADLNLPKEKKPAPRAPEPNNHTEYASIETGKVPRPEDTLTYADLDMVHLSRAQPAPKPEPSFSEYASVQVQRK
Experimental: as §1

[4] = target: T4, 6×His tagged human SIRPα v1 ECD recombinant protein (human, UniProt P78324 31-373); assay: SPR (Biacore)
T4 construct: extracellular domain; bought; also called hSIRPα V1 (SPR antigen)

[5] = target: T4, 6×His tagged human SIRPα v1 ECD …; assay: SPR (Biacore), antibody captured
Experimental: Anti-SIRPα chimeric antibodies were characterized for binding affinity against human SIRPα v1, human SIRPα v2 and C57BL/6 mouse SIRPα using Biacore (GE). Briefly the antibodies to be tested were captured to CM5 chip (GE) using Human Antibody Capture Kit (GE). The antigens of 6×His tagged human SIRPα v1, human SIRPα v2 and C57BL/6 mouse SIRPα ECD recombinant proteins were serially diluted for multiple doses and injected at 30 μl/min for 180 s. Buffer flow was maintained for dissociation of 400 s. 3 M MgCl₂ was used for chip regeneration. The association and dissociation curves were fit with 1:1 binding model, and the Ka/Kd/KD values for each antibody were calculated.

[6] = target: T5, biotin labeled soluble human SIRPα v1 ECD recombinant protein (human, UniProt P78324 31-373, biotin labeled); assay: competitive ELISA, hSIRPα/CD47 blocking
T5 construct: extracellular domain

[7] = target: T6, Fc tagged human SIRPγ ECD recombinant protein (human, UniProt Q9P1W8 29-360); assay: ELISA
T6 construct: range 1-360; cloned range includes the signal peptide; also called hSIRPγ; not shown: human IgG Fc region (hFc) of the pCPC vector

[8] = target: T7, Fc tagged human SIRPα v1 ECD recombinant protein (human, UniProt P78324 31-370); assay: ELISA
T7 construct: range 1-370; cloned range M1-R370 includes the signal peptide; also called hSIRPα V1; not shown: human IgG Fc region (hFc) of the pCPC vector

[9] = target: T8, Fc tagged human SIRPβ ECD recombinant protein (human, UniProt O00241 30-371); assay: ELISA
T8 construct: range 1-371; cloned range includes the signal peptide; also called hSIRPβ; not shown: human IgG Fc region (hFc) of the pCPC vector

[10] = target: T9, 6×His tagged human SIRPα v8 ECD recombinant protein (human); assay: ELISA
T9 construct: extracellular domain; bought; also called hSIRPα V8

[11] = target: T10, Fc tagged human SIRPα v2 ECD recombinant protein (human); assay: ELISA
T10 construct: range 1-369; cloned range M1-R369 includes the signal peptide; also called hSIRPα V2

[12] = target: T11, 6×His tagged C57BL/6 mouse SIRPα ECD recombinant protein (mouse (C57BL/6), UniProt P97797 32-373); assay: ELISA on coated mouse SIRPα (C57BL/6) ECD [Continued) F]
T11 construct: extracellular domain; bought; also called mSIRPα (C57BL/6); mouse SIRPα (C57BL/6) ECD
T11 sequence: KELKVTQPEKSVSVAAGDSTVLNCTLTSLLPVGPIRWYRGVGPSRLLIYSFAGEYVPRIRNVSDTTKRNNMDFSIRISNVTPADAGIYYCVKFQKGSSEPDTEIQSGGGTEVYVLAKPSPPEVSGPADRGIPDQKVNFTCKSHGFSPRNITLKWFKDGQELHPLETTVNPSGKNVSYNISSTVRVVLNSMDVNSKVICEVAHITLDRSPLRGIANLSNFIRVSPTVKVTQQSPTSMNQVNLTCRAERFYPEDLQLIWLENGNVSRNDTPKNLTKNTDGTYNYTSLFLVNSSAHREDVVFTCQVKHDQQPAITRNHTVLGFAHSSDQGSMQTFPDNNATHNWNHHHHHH

[13] = target: T5, biotin labeled soluble human SIRPα v1 …; assay: competitive ELISA; competitor 050
Experimental: (§2) Competitive ELISA assay was used for epitope binning of 9 functional antibodies. Briefly excessive competitor antibody and biotin labeled soluble human SIRPα v1 ECD recombinant protein were co-incubated with ELISA microplate coated antibody. After washing, HRP-SA was added and incubated at 37° C. for 1 hour. Then, […] of TMB solution (Biotechnology) was added. After incubation for 15 minutes at room temperature, the reaction was stopped by the addition of […] of 1N HCl. OD 450 nm was read. Competition ratio was calculated. The antibodies that can compete each other for binding to SIRPα have the similar binding epitope.

[14] = target: T5, biotin labeled soluble human SIRPα v1 …; assay: competitive ELISA; competitor 060
Experimental: as §2

[15] = target: T5, biotin labeled soluble human SIRPα v1 …; assay: competitive ELISA; competitor 032
Experimental: as §2

[16] = target: T5, biotin labeled soluble human SIRPα v1 …; assay: competitive ELISA; competitor KWAR23
Experimental: as §2

[17] = target: T5, biotin labeled soluble human SIRPα v1 …; assay: competitive ELISA; competitor 29-AM4-5
Experimental: as §2

[18] = target: T5, biotin labeled soluble human SIRPα v1 …; assay: competitive ELISA; competitor 055
Experimental: as §2

[19] = target: T5, biotin labeled soluble human SIRPα v1 …; assay: competitive ELISA; competitor 035
Experimental: as §2

[20] = target: T5, biotin labeled soluble human SIRPα v1 …; assay: competitive ELISA; competitor 001
Experimental: as §2

[21] = target: T7, Fc tagged human SIRPα v1 ECD …; assay: ELISA; remark: listed apart in the source
Experimental: (§3) Binding specificity of the purified hybridoma antibodies against SIRP family members was detected by ELISA assay using recombinant proteins of Fc tagged human SIRPα v1 ECD, human SIRPα v2 ECD, human SIRPβ ECD and human SIRPγ ECD. Briefly the antibodies were incubated with ELISA microplate coated antigens at 37° C. for 1 hour. After washing, horseradish peroxidase (HRP) labeled anti-mouse or anti-human IgG 2nd Ab (Sigma) was added and incubated at 37° C. for 1 hour. Then, 100 μl/well of TMB solution (Biotechnology) was added. After incubation for 15 minutes at room temperature, the reaction was stopped by the addition of 50 μl of 1N HCl. OD 450 nm was read and EC₅₀ was calculated. Other than 060 and HEFLB, all of the antibodies as tested can bind with both human SIRPα v1 and SIRPα v2. 060 and HEFLB can bind with human SIRPα v1 but not v2. Other than 055, all of the antibodies as tested can bind with human SIRPβ. In comparison with other known anti-SIRPα antibodies, only 022, 035 and 050 can bind with human SIRPγ weakly.

[22] = target: T10, Fc tagged human SIRPα v2 ECD …; assay: ELISA; remark: listed apart in the source
Experimental: as §3

[23] = target: T5, biotin labeled soluble human SIRPα v1 …; assay: competitive ELISA; competitor 074
Experimental: as §2

[24] = target: T5, biotin labeled soluble human SIRPα v1 …; assay: competitive ELISA; competitor 002
Experimental: as §2

[25] = target: T5, biotin labeled soluble human SIRPα v1 …; assay: competitive ELISA; competitor 022
Experimental: as §2

[26] = target: T5, biotin labeled soluble human SIRPα v1 …; assay: competitive ELISA; competitor HEFLB
Experimental: as §2

T5 sequence (P78324 31-373): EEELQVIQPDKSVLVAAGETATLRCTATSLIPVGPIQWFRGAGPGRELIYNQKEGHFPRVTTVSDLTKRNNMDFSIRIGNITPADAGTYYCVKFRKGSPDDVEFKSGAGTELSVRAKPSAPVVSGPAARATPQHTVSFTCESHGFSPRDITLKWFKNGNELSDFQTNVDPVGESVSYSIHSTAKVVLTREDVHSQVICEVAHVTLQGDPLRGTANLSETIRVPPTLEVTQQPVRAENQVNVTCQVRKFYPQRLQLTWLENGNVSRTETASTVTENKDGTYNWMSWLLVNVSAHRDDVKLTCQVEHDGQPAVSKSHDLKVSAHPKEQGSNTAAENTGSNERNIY
T7 sequence (P78324 31-370 limits assumed): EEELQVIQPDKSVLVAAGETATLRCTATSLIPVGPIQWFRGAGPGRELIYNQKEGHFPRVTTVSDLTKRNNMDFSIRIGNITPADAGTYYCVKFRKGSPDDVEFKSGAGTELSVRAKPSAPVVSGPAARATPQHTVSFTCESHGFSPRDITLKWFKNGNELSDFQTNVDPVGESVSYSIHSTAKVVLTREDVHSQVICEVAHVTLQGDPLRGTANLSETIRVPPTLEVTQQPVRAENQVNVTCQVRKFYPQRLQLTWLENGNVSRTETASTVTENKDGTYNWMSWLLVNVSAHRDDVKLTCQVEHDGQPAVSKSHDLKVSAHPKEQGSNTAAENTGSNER
T4 sequence (P78324 other isoform, or with tags, fused parts or gaps): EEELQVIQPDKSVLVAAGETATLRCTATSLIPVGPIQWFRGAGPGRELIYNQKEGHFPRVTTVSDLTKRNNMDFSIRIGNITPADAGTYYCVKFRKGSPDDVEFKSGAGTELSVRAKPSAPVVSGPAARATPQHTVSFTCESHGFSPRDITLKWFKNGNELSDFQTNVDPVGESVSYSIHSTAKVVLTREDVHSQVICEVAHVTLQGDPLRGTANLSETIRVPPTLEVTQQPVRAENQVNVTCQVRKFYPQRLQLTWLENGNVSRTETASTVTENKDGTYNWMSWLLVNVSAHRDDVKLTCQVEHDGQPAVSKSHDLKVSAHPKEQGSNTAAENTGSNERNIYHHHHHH
T8 sequence (O00241 30-371 limits assumed, form in doubt): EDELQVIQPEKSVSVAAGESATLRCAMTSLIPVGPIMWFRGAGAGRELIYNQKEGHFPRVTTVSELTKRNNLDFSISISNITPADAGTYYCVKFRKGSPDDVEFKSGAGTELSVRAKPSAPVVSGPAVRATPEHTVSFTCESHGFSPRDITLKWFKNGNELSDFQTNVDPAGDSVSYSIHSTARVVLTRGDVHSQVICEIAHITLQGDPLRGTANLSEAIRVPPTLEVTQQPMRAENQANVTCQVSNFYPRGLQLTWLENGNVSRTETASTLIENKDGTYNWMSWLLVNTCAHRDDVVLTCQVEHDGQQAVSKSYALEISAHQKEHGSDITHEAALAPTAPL
T6 sequence (Q9P1W8 29-360 limits assumed, form in doubt): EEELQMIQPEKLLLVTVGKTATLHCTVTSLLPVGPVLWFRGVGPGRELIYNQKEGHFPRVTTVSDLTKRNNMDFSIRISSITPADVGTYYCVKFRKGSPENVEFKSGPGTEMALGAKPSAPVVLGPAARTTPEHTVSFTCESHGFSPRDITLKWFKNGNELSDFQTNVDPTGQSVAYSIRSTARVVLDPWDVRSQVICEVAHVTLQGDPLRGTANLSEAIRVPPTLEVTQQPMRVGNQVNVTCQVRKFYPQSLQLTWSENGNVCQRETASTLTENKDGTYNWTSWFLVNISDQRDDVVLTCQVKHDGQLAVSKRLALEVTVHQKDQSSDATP

EC50 [1]: 0.97 nM
EC50 [2]: 0.29 nM
MFI at 2 ug/ml [3]: 549 MFI
Kd [4]: 1.64 nM
Kd [5]: 1.64 nM
koff [5]: 0.00017 s⁻¹
kon [5]: 104000 M⁻¹ s⁻¹
IC50 [6]: 1.74 nM
EC50 [7]: 6.24 nM
EC50 [8]: 0.16 nM
EC50 [9]: 0.2 nM
EC50 [10]: 0.23 nM
EC50 [11]: 0.16 nM
B1: humanized antibody hu035.02 (antibody, V domains shown)
VH: QIQLVQSGSELKKPGASVKVSCRARGYTLTDYAMNWVRQAPGQGLEWMGFINTYTGEPTYAQGFKGRFVFSLDTSVSTAYLQIGSLKAEDTAVYYCARTRGYYDFDGGAFDYWGQGTLVTVSS
VL: DIQMTQSPSSLSASVGDRVTITCRASQNVGTHLAWYQQKPGKAPKSLIYSASYRYIGVPSRFSGSGSGTDFTLTISSLQPEDFATYYCQQYNTYPLTFGQGTKLEIK

EC50 [1]: 1.46 nM
EC50 [2]: 0.3 nM
MFI at 2 ug/ml [3]: 626 MFI
Kd [4]: 3.2 nM
Kd [5]: 3.2 nM
koff [5]: 0.000189 s⁻¹
kon [5]: 59200 M⁻¹ s⁻¹
EC50 (read off the curve) [12]: ~0.09 µg/mL
IC50 [6]: 1.43 nM
EC50 [7]: 6.78 nM
EC50 [8]: 0.13 nM
EC50 [9]: 0.17 nM
EC50 [10]: 0.23 nM
EC50 [11]: 0.11 nM
B2: humanized antibody hu035.03 (antibody, V domains shown)
VH: B1 VH
VL: B1 VL with A43S, S46A, Y49F

% Competition [13]: 7%
% Competition [14]: 8%
% Competition [15]: -1%
EC50 [1]: 1.2 nM
MFI at 10 nM [2]: 4670 MFI
binding result [3]: no binding (tested: 100 nM)
% Competition [16]: 45%
% Competition [17]: 14%
% Competition [18]: 91%
% Competition [19]: 8%
% Competition [20]: -3%
EC50 [21]: 0.04 nM
EC50 [22]: 0.04 nM
% Competition [23]: 3%
% Competition [24]: -8%
% Competition [25]: 2%
% Competition [26]: -10%
B3: Antibody 055 (hybridoma antibody) (antibody, V domains shown)
VH: EVKLVESEGGLVQPGDSMKLSCTASGFTFSDYFMTWIRQVPEKGLEWIANVNYDGRSTYYLDSLKSRFIISRDNANNILYLQMSSLKSEDTATYYCAREGSQTPLYAVDYWGQGTSVTVSS
VL: DIVMTQSQKFMSTTVGDRVNITCKASQNVGTAVAWYQQKPGQSPKLLIYLASNRYTGVPDRFTGSGSGTDFTLTVSDMRSEDLADYFCQQYSIYPFTFGSGTKLEIK
notes: mouse hybridoma antibody
